Response data for one molecule are collected here from article PMC9563779.

The test deals with Oslo-2 mAb. The experiment in a line: peptide array on cellulose membrane (epitope mapping). The settings on record: chain shown with the change; duplicates; parent: est. 12000; read off a plot.
Sequence of Oslo-2 mAb (chain, as listed by the source, chain 1 of 2): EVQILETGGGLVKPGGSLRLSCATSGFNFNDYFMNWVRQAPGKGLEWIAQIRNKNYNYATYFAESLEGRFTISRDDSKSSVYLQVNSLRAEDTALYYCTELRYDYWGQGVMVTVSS
Sequence of Oslo-2 mAb (chain, as listed by the source, chain 2 of 2): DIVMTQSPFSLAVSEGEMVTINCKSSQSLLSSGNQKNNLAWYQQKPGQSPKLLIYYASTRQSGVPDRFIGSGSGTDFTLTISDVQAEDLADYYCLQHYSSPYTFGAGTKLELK

B1: 20 mer epitope peptide … (region 603-622 in HER2) E619A; E620A (peptide)
chain: GVKPDLSYMPIWKFPDAAGA
Turning to B1, the response was 1700.
